Experimental data reported in patent US20170008955A1 (CNJ, published 2017).

Columns and labels:
[1] = target: T1, cSNK:BSA conjugate (bovine, head-to-tail cyclized; conjugated to BSA carrier); assay: BLI (Octet), KD2
T1 construct: also called BSA-cSNK

[2] = target: T1, cSNK:BSA conjugate; assay: BLI (Octet), KD1

T1 sequence (P02769 25-607 limits assumed): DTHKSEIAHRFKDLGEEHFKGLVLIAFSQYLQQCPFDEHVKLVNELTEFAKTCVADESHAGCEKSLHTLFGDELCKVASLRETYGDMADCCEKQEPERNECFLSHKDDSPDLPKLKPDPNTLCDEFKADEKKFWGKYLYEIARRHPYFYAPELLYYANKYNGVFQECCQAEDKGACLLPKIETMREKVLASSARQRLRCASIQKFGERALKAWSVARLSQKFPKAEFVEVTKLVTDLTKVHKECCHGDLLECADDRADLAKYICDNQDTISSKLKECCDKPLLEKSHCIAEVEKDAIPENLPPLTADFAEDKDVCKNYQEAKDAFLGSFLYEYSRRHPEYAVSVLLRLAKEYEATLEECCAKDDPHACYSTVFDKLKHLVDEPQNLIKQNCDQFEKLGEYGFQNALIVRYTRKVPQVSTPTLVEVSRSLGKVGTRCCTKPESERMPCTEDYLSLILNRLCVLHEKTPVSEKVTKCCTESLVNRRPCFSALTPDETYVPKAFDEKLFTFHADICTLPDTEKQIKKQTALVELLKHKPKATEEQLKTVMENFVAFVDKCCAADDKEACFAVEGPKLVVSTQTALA

Row | Binder | Kd [1] [nM] | Kd [2] [nM]
1 | 5E3HCDR1-S184D (antibody, V domains shown, hu5E3 IgG1 vector mutant; also called 5E3-S184D-AFF) VH: QVQLQQSGPEVKKPGASVKISCKASGYIFTDYYIQWVIHAPGQGLEWIGWIYPGNVNTKYNEKFKGKATLTADKSSSTAYMELSSLTSEDTAVYFCARMDYEAHYWGQGTTVTVSS VL: DIQMTQSPSSLSASVGDRVTITCRASQEISGYLTWLQQKPEGAIKRLIYAASTLDSGVPKRFSGSRSGSDYSLTISSLQPEDFATYNCLQYANYPRTFGGGTKLEIK | 3.41 | 0.214
2 | 5E3KCDR3-L89I (antibody, IgG1, V domains shown, hu5E3 IgG1 vector mutant) VH: QVQLQQSGPEVKKPGASVKISCKASGYIFTSYYIQWVIHAPGQGLEWIGWIYPGNVNTKYNEKFKGKATLTADKSSSTAYMELSSLTSEDTAVYFCARMDYEAHYWGQGTTVTVSS VL: DIQMTQSPSSLSASVGDRVTITCRASQEISGYLTWLQQKPEGAIKRLIYAASTLDSGVPKRFSGSRSGSDYSLTISSLQPEDFATYNCIQYANYPRTFGGGTKLEIK | 17.4 | 1.62
3 | 5E3KCDR3-N93Q + 5E3HCDR3-Y212F (antibody, IgG1, V domains shown, double combination in hu5E3 IgG1) VH: QVQLQQSGPEVKKPGASVKISCKASGYIFTSYYIQWVIHAPGQGLEWIGWIYPGNVNTKYNEKFKGKATLTADKSSSTAYMELSSLTSEDTAVYFCARMDYEAHFWGQGTTVTVSS VL: DIQMTQSPSSLSASVGDRVTITCRASQEISGYLTWLQQKPEGAIKRLIYAASTLDSGVPKRFSGSRSGSDYSLTISSLQPEDFATYNCLQYAQYPRTFGGGTKLEIK | 2.8 | 0.0201
4 | 5E3HCDR3-Y208F (antibody, IgG1, V domains shown, hu5E3 IgG1 vector mutant) VH: QVQLQQSGPEVKKPGASVKISCKASGYIFTSYYIQWVIHAPGQGLEWIGWIYPGNVNTKYNEKFKGKATLTADKSSSTAYMELSSLTSEDTAVYFCARMDFEAHYWGQGTTVTVSS VL: DIQMTQSPSSLSASVGDRVTITCRASQEISGYLTWLQQKPEGAIKRLIYAASTLDSGVPKRFSGSRSGSDYSLTISSLQPEDFATYNCLQYANYPRTFGGGTKLEIK | 0.001 | 21.5
5 | 5E3KCDR2-S80D (antibody, IgG1, V domains shown, hu5E3 IgG1 vector mutant; also called 5E3-S80D-AFF) VH: QVQLQQSGPEVKKPGASVKISCKASGYIFTSYYIQWVIHAPGQGLEWIGWIYPGNVNTKYNEKFKGKATLTADKSSSTAYMELSSLTSEDTAVYFCARMDYEAHYWGQGTTVTVSS VL: DIQMTQSPSSLSASVGDRVTITCRASQEISGYLTWLQQKPEGAIKRLIYAASTLDDGVPKRFSGSRSGSDYSLTISSLQPEDFATYNCLQYANYPRTFGGGTKLEIK | 3.95 | 0.0269
6 | 5E3KCDR3-L89I + 5E3HCDR3-Y212F (antibody, IgG1, V domains shown, double combination in hu5E3 IgG1) VH: QVQLQQSGPEVKKPGASVKISCKASGYIFTSYYIQWVIHAPGQGLEWIGWIYPGNVNTKYNEKFKGKATLTADKSSSTAYMELSSLTSEDTAVYFCARMDYEAHFWGQGTTVTVSS VL: DIQMTQSPSSLSASVGDRVTITCRASQEISGYLTWLQQKPEGAIKRLIYAASTLDSGVPKRFSGSRSGSDYSLTISSLQPEDFATYNCIQYANYPRTFGGGTKLEIK | 4.2 | 0.021
7 | 5E3HCDR3-E209D (antibody, IgG1, V domains shown, hu5E3 IgG1 vector mutant; same change as 5E3HCDR3-E255D) VH: QVQLQQSGPEVKKPGASVKISCKASGYIFTSYYIQWVIHAPGQGLEWIGWIYPGNVNTKYNEKFKGKATLTADKSSSTAYMELSSLTSEDTAVYFCARMDYDAHYWGQGTTVTVSS VL: DIQMTQSPSSLSASVGDRVTITCRASQEISGYLTWLQQKPEGAIKRLIYAASTLDSGVPKRFSGSRSGSDYSLTISSLQPEDFATYNCLQYANYPRTFGGGTKLEIK | 9.13 | 3.21
8 | 5E3KCDR3-N93D (antibody, IgG1, V domains shown, hu5E3 IgG1 vector mutant; same change as 5E3KCDR3-N117D) VH: QVQLQQSGPEVKKPGASVKISCKASGYIFTSYYIQWVIHAPGQGLEWIGWIYPGNVNTKYNEKFKGKATLTADKSSSTAYMELSSLTSEDTAVYFCARMDYEAHYWGQGTTVTVSS VL: DIQMTQSPSSLSASVGDRVTITCRASQEISGYLTWLQQKPEGAIKRLIYAASTLDSGVPKRFSGSRSGSDYSLTISSLQPEDFATYNCLQYADYPRTFGGGTKLEIK | 9.9 | 4.25
9 | 5E3KCDR2-A74D (antibody, IgG1, V domains shown, hu5E3 IgG1 vector mutant; also called 5E3-A74D-AFF) VH: QVQLQQSGPEVKKPGASVKISCKASGYIFTSYYIQWVIHAPGQGLEWIGWIYPGNVNTKYNEKFKGKATLTADKSSSTAYMELSSLTSEDTAVYFCARMDYEAHYWGQGTTVTVSS VL: DIQMTQSPSSLSASVGDRVTITCRASQEISGYLTWLQQKPEGAIKRLIYDASTLDSGVPKRFSGSRSGSDYSLTISSLQPEDFATYNCLQYANYPRTFGGGTKLEIK | 3.06 | 0.302
10 | 5E3HCDR3-Y212F (antibody, IgG1, V domains shown, hu5E3 IgG1 vector mutant) VH: QVQLQQSGPEVKKPGASVKISCKASGYIFTSYYIQWVIHAPGQGLEWIGWIYPGNVNTKYNEKFKGKATLTADKSSSTAYMELSSLTSEDTAVYFCARMDYEAHFWGQGTTVTVSS VL: DIQMTQSPSSLSASVGDRVTITCRASQEISGYLTWLQQKPEGAIKRLIYAASTLDSGVPKRFSGSRSGSDYSLTISSLQPEDFATYNCLQYANYPRTFGGGTKLEIK | 8.25 | 1.58
11 | 5E3KCDR3-A116Y (antibody, IgG1, V domains shown, hu5E3 IgG1 vector mutant) VH: QVQLQQSGPEVKKPGASVKISCKASGYIFTSYYIQWVIHAPGQGLEWIGWIYPGNVNTKYNEKFKGKATLTADKSSSTAYMELSSLTSEDTAVYFCARMDYEAHYWGQGTTVTVSS VL: DIQMTQSPSSLSASVGDRVTITCRASQEISGYLTWLQQKPEGAIKRLIYAASTLDSGVPKRFSGSRSGSDYSLTISSLQPEDFATYNCLQYYNYPRTFGGGTKLEIK | 1.93 | < 0.001
12 | 5E3HCDR3-E255D (antibody, IgG1, V domains shown, hu5E3 IgG1 vector mutant; same change as 5E3HCDR3-E209D; also called 5E3-E255D-AFF) VH: QVQLQQSGPEVKKPGASVKISCKASGYIFTSYYIQWVIHAPGQGLEWIGWIYPGNVNTKYNEKFKGKATLTADKSSSTAYMELSSLTSEDTAVYFCARMDYDAHYWGQGTTVTVSS VL: DIQMTQSPSSLSASVGDRVTITCRASQEISGYLTWLQQKPEGAIKRLIYAASTLDSGVPKRFSGSRSGSDYSLTISSLQPEDFATYNCLQYANYPRTFGGGTKLEIK | 2.57 | 0.0333
13 | 5E3HCDR2-K212D (antibody, IgG1, V domains shown, hu5E3 IgG1 vector mutant; also called 5E3-K212D-AFF) VH: QVQLQQSGPEVKKPGASVKISCKASGYIFTSYYIQWVIHAPGQGLEWIGWIYPGNVNTDYNEKFKGKATLTADKSSSTAYMELSSLTSEDTAVYFCARMDYEAHYWGQGTTVTVSS VL: DIQMTQSPSSLSASVGDRVTITCRASQEISGYLTWLQQKPEGAIKRLIYAASTLDSGVPKRFSGSRSGSDYSLTISSLQPEDFATYNCLQYANYPRTFGGGTKLEIK | 2.36 | 0.0171
14 | 5E3KCDR2-S80Y (antibody, IgG1, V domains shown, hu5E3 IgG1 vector mutant) VH: QVQLQQSGPEVKKPGASVKISCKASGYIFTSYYIQWVIHAPGQGLEWIGWIYPGNVNTKYNEKFKGKATLTADKSSSTAYMELSSLTSEDTAVYFCARMDYEAHYWGQGTTVTVSS VL: DIQMTQSPSSLSASVGDRVTITCRASQEISGYLTWLQQKPEGAIKRLIYAASTLDYGVPKRFSGSRSGSDYSLTISSLQPEDFATYNCLQYANYPRTFGGGTKLEIK | 3.05 | 0.0138
15 | 5E3KCDR2-G81D (antibody, IgG1, V domains shown, hu5E3 IgG1 vector mutant; also called 5E3-G81D-AFF) VH: QVQLQQSGPEVKKPGASVKISCKASGYIFTSYYIQWVIHAPGQGLEWIGWIYPGNVNTKYNEKFKGKATLTADKSSSTAYMELSSLTSEDTAVYFCARMDYEAHYWGQGTTVTVSS VL: DIQMTQSPSSLSASVGDRVTITCRASQEISGYLTWLQQKPEGAIKRLIYAASTLDSDVPKRFSGSRSGSDYSLTISSLQPEDFATYNCLQYANYPRTFGGGTKLEIK | 2.33 | 0.0192
16 | 5E3KCDR3-L89I + 5E3HCDR3-E209Q (antibody, IgG1, V domains shown, double combination in hu5E3 IgG1) VH: QVQLQQSGPEVKKPGASVKISCKASGYIFTSYYIQWVIHAPGQGLEWIGWIYPGNVNTKYNEKFKGKATLTADKSSSTAYMELSSLTSEDTAVYFCARMDYQAHYWGQGTTVTVSS VL: DIQMTQSPSSLSASVGDRVTITCRASQEISGYLTWLQQKPEGAIKRLIYAASTLDSGVPKRFSGSRSGSDYSLTISSLQPEDFATYNCIQYANYPRTFGGGTKLEIK | – | 19.8
17 | 5E3HCDR3-E209Q (antibody, IgG1, V domains shown, hu5E3 IgG1 vector mutant) VH: QVQLQQSGPEVKKPGASVKISCKASGYIFTSYYIQWVIHAPGQGLEWIGWIYPGNVNTKYNEKFKGKATLTADKSSSTAYMELSSLTSEDTAVYFCARMDYQAHYWGQGTTVTVSS VL: DIQMTQSPSSLSASVGDRVTITCRASQEISGYLTWLQQKPEGAIKRLIYAASTLDSGVPKRFSGSRSGSDYSLTISSLQPEDFATYNCLQYANYPRTFGGGTKLEIK | 6.05 | 1.86
18 | 5E3HCDR3-A210G (antibody, IgG1, V domains shown, hu5E3 IgG1 vector mutant) VH: QVQLQQSGPEVKKPGASVKISCKASGYIFTSYYIQWVIHAPGQGLEWIGWIYPGNVNTKYNEKFKGKATLTADKSSSTAYMELSSLTSEDTAVYFCARMDYEGHYWGQGTTVTVSS VL: DIQMTQSPSSLSASVGDRVTITCRASQEISGYLTWLQQKPEGAIKRLIYAASTLDSGVPKRFSGSRSGSDYSLTISSLQPEDFATYNCLQYANYPRTFGGGTKLEIK | 9.97 | 1.73
19 | 5E3HCDR2-V209Y (antibody, IgG1, V domains shown, hu5E3 IgG1 vector mutant) VH: QVQLQQSGPEVKKPGASVKISCKASGYIFTSYYIQWVIHAPGQGLEWIGWIYPGNYNTKYNEKFKGKATLTADKSSSTAYMELSSLTSEDTAVYFCARMDYEAHYWGQGTTVTVSS VL: DIQMTQSPSSLSASVGDRVTITCRASQEISGYLTWLQQKPEGAIKRLIYAASTLDSGVPKRFSGSRSGSDYSLTISSLQPEDFATYNCLQYANYPRTFGGGTKLEIK | 2.4 | 0.0107
20 | 5E3KCDR3-N93D + 5E3HCDR3-Y212F (antibody, IgG1, V domains shown, double combination in hu5E3 IgG1) VH: QVQLQQSGPEVKKPGASVKISCKASGYIFTSYYIQWVIHAPGQGLEWIGWIYPGNVNTKYNEKFKGKATLTADKSSSTAYMELSSLTSEDTAVYFCARMDYEAHFWGQGTTVTVSS VL: DIQMTQSPSSLSASVGDRVTITCRASQEISGYLTWLQQKPEGAIKRLIYAASTLDSGVPKRFSGSRSGSDYSLTISSLQPEDFATYNCLQYADYPRTFGGGTKLEIK | 2.41 | 0.0194
21 | 5E3KCDR3-N93Q (antibody, IgG1, V domains shown, hu5E3 IgG1 vector mutant) VH: QVQLQQSGPEVKKPGASVKISCKASGYIFTSYYIQWVIHAPGQGLEWIGWIYPGNVNTKYNEKFKGKATLTADKSSSTAYMELSSLTSEDTAVYFCARMDYEAHYWGQGTTVTVSS VL: DIQMTQSPSSLSASVGDRVTITCRASQEISGYLTWLQQKPEGAIKRLIYAASTLDSGVPKRFSGSRSGSDYSLTISSLQPEDFATYNCLQYAQYPRTFGGGTKLEIK | 0.76 | 9.12
